Values of other authors as cited in PMC4569521.

Experiments:
[1] = molecular target: MuA recognition peptides (Escherichia phage Mu) (UniProt P07636)
[2] = molecular target: MuA tetramer (Escherichia phage Mu) (UniProt P07636)
Sequence of MuA tetramer (Escherichia phage Mu) (P07636 whole entry): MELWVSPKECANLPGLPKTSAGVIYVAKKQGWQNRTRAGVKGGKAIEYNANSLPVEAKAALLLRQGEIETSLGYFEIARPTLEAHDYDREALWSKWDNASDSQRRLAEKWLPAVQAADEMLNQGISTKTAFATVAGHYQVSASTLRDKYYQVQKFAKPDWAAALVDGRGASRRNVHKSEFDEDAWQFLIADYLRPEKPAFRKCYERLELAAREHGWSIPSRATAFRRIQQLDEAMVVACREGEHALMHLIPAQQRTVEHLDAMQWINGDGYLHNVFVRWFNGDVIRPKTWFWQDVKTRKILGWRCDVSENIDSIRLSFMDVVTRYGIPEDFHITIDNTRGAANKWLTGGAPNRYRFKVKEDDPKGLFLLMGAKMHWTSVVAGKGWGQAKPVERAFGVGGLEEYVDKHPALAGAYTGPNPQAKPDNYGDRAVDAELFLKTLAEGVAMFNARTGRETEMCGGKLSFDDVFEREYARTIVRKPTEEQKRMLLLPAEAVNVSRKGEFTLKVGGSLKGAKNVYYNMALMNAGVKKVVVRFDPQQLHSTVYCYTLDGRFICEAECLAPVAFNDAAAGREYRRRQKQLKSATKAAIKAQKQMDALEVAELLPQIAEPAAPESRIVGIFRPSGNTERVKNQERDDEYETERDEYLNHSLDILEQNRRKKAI

Sequence of ClpX (P0A6H1 2-424): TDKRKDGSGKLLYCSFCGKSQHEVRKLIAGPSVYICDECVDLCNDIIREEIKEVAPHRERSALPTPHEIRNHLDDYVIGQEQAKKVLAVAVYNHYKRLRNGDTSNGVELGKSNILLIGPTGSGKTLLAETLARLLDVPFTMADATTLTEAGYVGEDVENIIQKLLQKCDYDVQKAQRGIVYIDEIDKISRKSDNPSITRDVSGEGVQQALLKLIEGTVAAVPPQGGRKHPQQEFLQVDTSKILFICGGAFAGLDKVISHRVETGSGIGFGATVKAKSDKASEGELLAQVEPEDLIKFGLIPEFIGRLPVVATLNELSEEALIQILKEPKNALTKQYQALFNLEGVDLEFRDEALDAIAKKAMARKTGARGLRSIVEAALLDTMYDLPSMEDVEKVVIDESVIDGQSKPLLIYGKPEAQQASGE
Sequence of MuA recognition peptides (Escherichia phage Mu) (P07636 whole entry, looked up): as the sequence (P07636 whole entry) above

ClpX (from UniProt P0A6H1)
Kd [1]: > 70 µM
Kd [2]: 1000 nM
